Assay results published in US7378498B2, “Protein encoded by a nucleic acid” (The Johns Hopkins University School of Medicine, priority 1998, dated 2008).

B1: truncated form of Homer: 186 amino acid amino-terminal fragment of Homer 1b, lacks the coiled-coil domain, expressed by transfection (protein)
chain: MGEQPIFSTRAHVFQIDPNTKKNWVPTSKHAVTVSYFYDSTRNVYRIISLDGSKAIINSTITPNMTFTKTSQKFGQWADSRANTVYGLGFSSEHHLSKFAEKFQEFKEAARLAKEKSQEKMELTSTPSQESAGGDLQSPLTPESINGTDDERTPDVTQNSEPRAEPTQNALPFPHSSAISKHWEAE
modifications: left off: small tags and cut ends
notes: 186 amino acid amino-terminal fragment of Homer 1b, lacks the coiled-coil domain, expressed by transfection
B2: Homer 1b: full-length Homer 1b expressed from pRK5 plasmid in Purkinje cells (protein, listed as Homo sapiens)
chain: MGEQPIFSTRAHVFQIDPNTKKNWVPTSKHAVTVSYFYDSTRNVYRIISLDGSKAIINSTITPNMTFTKTSQKFGQWADSRANTVYGLGFSSEHHLSKFAEKFQEFKEAARLAKEKSQEKMELTSTPSQESAGGDLQSPLTPESINGTDDERTPDVTQNSEPRAEPTQNALPFSHSSAISKHWEAELATLKGNNAKLTAALLESTANVKQWKQQLAAYQEEAERLHKRVTELECVSSQANAVHTHKTELNQTIQELEETLKLKEEEIERLKQEIDNARELQEQRDSLTQKLQEVEIRNKDLEGQLSDLEQRLEKSQNEQEAFRNNLKTLLEILDGKIFELTELRDNLAKLLECS

What was measured:
[1] = system: mGluR-evoked Ca^+2 responses in Purkinje cells; test: Fura-2 ratio imaging of quisqualate-evoked Ca2+ mobilization in transfected cerebellar Purkinje cells; format: cell-based, mouse; conditions: for mGluR-evoked Ca^+2 response amplitude / mGluR-evoked Ca^+2 response latency: mean±SEM, transfected Purkinje cells, quisqualate micropressure pulse, Ca^+2-free external saline
Text: The truncated Homer protein used lacks the coiled-coil domain and is unable to form a bridge linking the mGluR at the cell surface with intracellular inositol trisphosphate receptors. The truncated form of Homer protein resembled Homer 1a with the exception of 11 residues at the carboxy-terminal. This form of Homer results in enhanced expression of Homer protein as compared with transfection of Homer 1a in heterologous cells. The Homer protein was introduced into Purkinje cells in primary cerebellar cultures and glutamate induced effects on calcium mobilization was measured.
Embryonic mouse cerebellar cultures were prepared and maintained according to the method of Schilling et al. (Schilling et al., Neuron 7:891 1991). At 4-5 DIV, cultures were transfected with plasmids coding for E-GFP (Clontech) and either full-length Homer 1b or an IEG form of Homer 1. The IEG form of Homer 1 was a 186 amino acid amino-terminal fragment of Homer 1b. Plasmids were purified by cesium banding. Three combinations of the plasmids were transfected. Group I (control), 20 Tg of E-GFP and 40 Tg of pRK5 vector; group II, 20 Tg of E-GFP and 40 Tg of pRK5 Homer 1 IEG; group III: 20 Tg of E-GFP and 40 Tg of pRK5 Homer 1b. Plasmid DNA was mixed with gold particles (0.6 micron), and coated onto plastic tubing. DNA was then ballistically transfected into cells according to the manufacturer's protocol (Helios Gene Gun System, BIO-RAD). After transfection, cultures were returned to the incubator and maintained for an additional […] for a total of 7-8 DIV at the time of use for imaging experiments.
Patch electrodes were attached to the somata of GFP-expressing Purkinje cells and a holding potential of −60 mV was applied. Micropressure electrodes (1 Tm tip diameter) were filled with quisqualate (100 Tm in external saline) and were positioned ˜20 Tm away from large-caliber dendrites. Test pulses were delivered using positive pressure (6 psi, 1 sec). Cells were bathed in a solution that contained (in mM) NaCl (140), KCl (5), EGTA (0.2), MgCl2 (0.8), HEPES (10), glucose (10), tetrodotoxin (0.005), and picrotoxin (0.1), adjusted to pH 7.35 with NaOH, which flowed at a rate of 0.5 ml/m The recording electrode contained CsCl (135), HEPES (10), fura-2 K5 salt (0.2), and Na2-ATP (4), adjusted to pH 7.35 with CSOH. Patch electrodes yielded a resistance of 3-5 MA when measured with the internal and external salines described above.
Fura-2 ratio imaging of intracellular free Ca^2+, was accomplished by measuring the background corrected fluorescence ratio at 340 and 380 nm excitation using a cooled CCD camera system, as previously described (Linden et al., J Neurosci 15:5098 1995). Exposure times were 200 msec per single wavelength image. Experiments were conducted at room temperature. Enhanced GFP is weakly excited by illumination in the 380-400 nm spectrum. Based upon the bandpass characteristics of our 340HT15 and 380HT10 excitation filters and the absorption spectrum of enhanced GFP (Clontech), we estimate that <1% of the signal at 340 nm excitation and <5% of the signal at 380 nm excitation is contributed by GFP, even in those cells where the fura/GFP loading ratio is smallest. This could lead to a small (<5%) systemic underestimation of free calcium concentration that should distribute randomly across experimental groups.
Calcium mobilization in the absence of influx was measure by ratio imaging fura-2 in Purkinje cells bathed in Ca^+2-free external saline and stimulated with a micropressure pulse of quisqualate, a metabotropic glutamate receptor agonist (Linden, Neuron 17:483 1996). […] The decay phase of the Ca^+2 response appeared somewhat slower in neurons transfected with the truncated form. […]

[2] = target: binding of mGluR1a or mGluR5 to each of the Homer family members; test: Synthetic peptide block of mGluR1a/mGluR5 binding to Homer family members; conditions: synthetic 10 mer peptides, read-out: peptide concentration at which approximately half of the binding was blocked
Protocol: This exquisite sensitivity of Homer binding to changes in single amino acids within the Homer-ligand site was confirmed in other Homer-interacting proteins including mGluR1a (Tu et al., 1998), Shank (Tu et al., 1999), and I42 (see below). To further confirm that the interaction was mediated by a direct interaction at the Homer-ligand site (as opposed to a secondary allosteric effect on a remote binding site), synthetic 10-mer peptides with either the wild type, or F-to-R mutation were prepared. The wild type peptide blocked binding of mGluR1a or mGluR5 to each of the Homer family members (Tu et al., 1998). Approximately half of the binding was blocked at a peptide concentration of 3.4 micromolar.
Mutations of mGluR5 were initially tested in the context of a 250aa C-terminal fragment, but were also determined to have an identical effect on binding when placed in the full length mGluR5 protein (Tu et al., 1998). This exquisite sensitivity of Homer binding to changes in single amino acid within the Homer-ligand site has been confirmed in other Homer-interacting proteins including mGluR1a (Tu et al., 1998), Shank (Tu et al., 1999) and I42 (see below). […] Approximately half of the binding was blocked at a peptide concentration of 3.4 micromolar.

| Molecule | mGluR-evoked Ca^+2 response amplitude [1] [nM] | mGluR-evoked Ca^+2 response latency [1] [s] | other results |
| --- | --- | --- | --- |
| CC(N)(C(=O)O)c1ccc(C(=O)O)cc1 (single isomer, unassigned; (+)) [(+)-MCPG, reference compound] | – | – | block of quisqualate-evoked Ca^+2 transient ([1]; 500 TM in the bath): completely blocked |
| C1CCC[C@H]2CCCN3CC[C@@H](CCCCCC[C@@H]4CCCN5CC[C@@H](CC1)O[C@@H]45)O[C@@H]23 [xestospongin C, reference compound] | – | – | block of quisqualate-evoked Ca^+2 transient ([1]; 1 TM in the internal saline): completely blocked |
| synthetic 10 mer peptide with the wild type Homer-ligand site; possibly SEQ ID NO:14 ALTPPSPFRD (extended region for peptide binding) [wild type peptide] | – | – | IC50 [2]: ~3.4 µM |
| B1 | 170 ± 9 | 10.5 ± 1.8 | – |
| B2 | 244 ± 17 | 4.2 ± 0.9 | – |
